Experimental findings from PMC4555872 are described below.

Assay [1] deals with BG505 SOSIP.664 gp140 trimer (cleaved) (HIV-1 (BG505)). In words: negative stain electron microscopy.
In assay [2] the target is BG505 WT.SEKS gp140 (uncleaved) (HIV-1 (BG505)). Briefly: negative stain electron microscopy.
In assay [3] the target is CZA97.012 gp140 (uncleaved, foldon, His-tagged) (HIV-1 (subtype C, CZA97.012) | not stated). Briefly: SEC.

Regarding “BG505 SOSIP.664 gp140 trimer (cleaved) (complex)”, in assay [1], the stoichiometry N came to 3.
In assay [2], BG505 WT.SEKS gp140 (uncleaved) showed a stoichiometry N of 3.
Substance “CZA97.012 gp140 (uncleaved, foldon, His-tagged)” showed a stoichiometry N in assay [3] of 3.

By stoichiometry N is commonly meant a count of units in the complex or per binding partner.
